# Results published in patent US20240141072A1 (published 2024).
# Positions count from the first letter of the chain named.
# B1: 4H011 anti-DLL3 trispecific protein (other)
# chain: EVQLVESGGGLVQPGGSLTLSCAASGSSVSRLSMAWYRQAPGKKRELVAGISVDGSTDYIDSVKGRFTISRDNAKNSVYLQMNSLRAEDTAVYYCYAYRWTTRLTYWGQGTLVTVSS
# notes: also called 4H11; not shown: linker 1808, anti-albumin sdAb, linker 1808, anti-CD3 fragment, His6 1819
# B2: 2E01 anti-DLL3 trispecific protein (other)
# chain: EVQLVESGGGLVQPGGSLTLSCVASGSTSSINAMGWYRRAPFKQGELPAGISPDGTKAYADSAKVRFTISRDNAKNSVYLQMNSLRAEDTAVYYCYYFHTVCGTSMGYWGQGTLVTVSS
# notes: not shown: linker 1808, anti-albumin sdAb, linker 1808, anti-CD3 fragment, His6 1819
# B3: 3A02 anti-DLL3 trispecific protein (other)
# chain: B1 chain with R31F, M34L, V53A, D58A, T101R, L104Y
# notes: as for B2
# B4: 3A011 anti-DLL3 trispecific protein (other)
# chain: B1 chain with R31F, M34L, V53T, T101R, L104Y
# notes: as for B2
# B5: 4B011 anti-DLL3 trispecific protein (other)
# chain: B1 chain with S30T, R31F, V53A, D58V, L104G
# notes: as for B2
# B6: 4H07 anti-DLL3 trispecific protein (other)
# chain: B1 chain with S27R, R31F, V53A, D54N, T101S, L104Y
# notes: as for B2
# B7: 4B07 anti-DLL3 trispecific protein (other)
# chain: B1 chain with S30G, R31F, V53A, D58V, L104Y
# notes: as for B2
# B8: 4H09 anti-DLL3 trispecific protein (other)
# chain: B1 chain with R31K, V53A, I60R, T102Y, L104Y
# notes: as for B2
# B9: 4D09 anti-DLL3 trispecific protein (other)
# chain: B1 chain with S30K, R31F, V53A, D61L, R99E, L104Y
# notes: as for B2
# B10: 3D07 anti-DLL3 trispecific protein (other)
# chain: B1 chain with S30R, R31F, V53A, R99S, L104Y
# notes: as for B2
# B11: 4H04 anti-DLL3 trispecific protein (other)
# chain: B1 chain with S30K, R31F, I51V, V53A, R99E, L104Y
# notes: as for B2
# B12: 4H08 anti-DLL3 trispecific protein (other)
# chain: B1 chain with S30K, R31F, V53A, I60V, T101S, L104Y
# notes: as for B2
# B13: 3H06 anti-DLL3 trispecific protein (other)
# chain: B1 chain with R31Q, V53A, I60F, L104G
# notes: as for B2
# B14: 3H011 anti-DLL3 trispecific protein (other)
# chain: B1 chain with S30K, R31F, V53A, D58V, T101P, L104Y
# notes: as for B2
# B15: 3C04 anti-DLL3 trispecific protein (other)
# chain: B1 chain with S28H, R31F, V53A, S56P, T101D, L104Y
# notes: as for B2
# B16: 4H06 anti-DLL3 trispecific protein (other)
# chain: B1 chain with S27R, R31F, V53A, D58I, L104Y
# notes: as for B2
# B17: 4E02 anti-DLL3 trispecific protein (other)
# chain: B1 chain with S28Q, R31F, V53A, D58V, T101S, L104Y
# notes: as for B2
# B18: 4D011 anti-DLL3 trispecific protein (other)
# chain: B1 chain with S30R, R31F, T101R, L104Y
# notes: also called 4D11; not shown: linker 1808, anti-albumin sdAb, linker 1808, anti-CD3 fragment, His6 1819
# B19: 4C06 anti-DLL3 trispecific protein (other)
# chain: B1 chain with G26N, R31K, V53A, D58A, T101S, L104Y
# notes: as for B2
# B20: 1A011 anti-DLL3 trispecific protein (other)
# chain: EVQLVESGGGLVQPGGSLTLSCVASGSTSSINAIGWYRRAPGKQRELVAGISSDGSKVYIDSVKGRFTISRDNAKNSVYLQMNSLRAEDTAVYYCYYFRTVSGSSYRYWGQGTLVTVSS
# notes: also called 1A11; not shown: linker 1808, anti-albumin sdAb, linker 1808, anti-CD3 fragment, His6 1819
# B21: 2E010 anti-DLL3 trispecific protein (other)
# chain: B20 chain with I34M, G35A, I60A, R99H, Y106M
# notes: as for B2
# B22: 2E011 anti-DLL3 trispecific protein (other)
# chain: B20 chain with K57S, I60A, T100R, Y106M
# notes: as for B2
# B23: 2H02 anti-DLL3 trispecific protein (other)
# chain: B20 chain with I34M, G35A, V48A, I60A, R99H, Y106M
# notes: as for B2
# B24: 2E05 anti-DLL3 trispecific protein (other)
# chain: B20 chain with T28P, I34Y, I60S, Y106M, R107S
# notes: as for B2
# B25: 2A04 anti-DLL3 trispecific protein (other)
# chain: B20 chain with I34M, G35A, I60T, V101T, Y106M
# notes: as for B2
# B26: 2C04 anti-DLL3 trispecific protein (other)
# chain: B20 chain with I31R, I34M, V58L, I60A, S102L, Y106M
# notes: as for B2
# B27: 2E02 anti-DLL3 trispecific protein (other)
# chain: B20 chain with S30A, I34M, I60V, Y106Q
# notes: as for B2
# B28: 1C03 anti-DLL3 trispecific protein (other)
# chain: B20 chain with I34M, G35A, G55N, I60A, S102G, Y106M
# notes: as for B2
# Target: T1, human DLL3 on DLL3-expressing tumor cell lines (human, UniProt Q9NYJ7 27-618)
# T1 sequence: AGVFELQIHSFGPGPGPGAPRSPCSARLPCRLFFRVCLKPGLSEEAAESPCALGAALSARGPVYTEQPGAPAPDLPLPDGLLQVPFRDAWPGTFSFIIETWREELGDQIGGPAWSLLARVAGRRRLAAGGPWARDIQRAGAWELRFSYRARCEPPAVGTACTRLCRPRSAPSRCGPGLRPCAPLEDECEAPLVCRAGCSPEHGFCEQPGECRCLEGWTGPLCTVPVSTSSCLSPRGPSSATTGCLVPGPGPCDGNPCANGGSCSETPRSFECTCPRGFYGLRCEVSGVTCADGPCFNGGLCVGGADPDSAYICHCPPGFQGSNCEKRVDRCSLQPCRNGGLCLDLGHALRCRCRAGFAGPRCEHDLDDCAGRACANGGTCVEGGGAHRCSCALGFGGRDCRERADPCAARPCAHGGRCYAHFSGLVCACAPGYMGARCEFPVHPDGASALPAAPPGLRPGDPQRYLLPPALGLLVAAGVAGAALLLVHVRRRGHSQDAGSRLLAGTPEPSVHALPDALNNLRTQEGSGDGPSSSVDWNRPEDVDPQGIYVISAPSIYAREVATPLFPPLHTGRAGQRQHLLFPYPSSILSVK
# Test: cell-based or functional assay
row,Binder,fold increase in TDCC potency compared to the parental DLL3 binder molecule (DH6)
1,B1,> 8 fold

# Target: T2, biotinylated human DLL3 protein expressed as a human IgG1 fusion protein (human, UniProt Q9NYJ7 27-492, limits assumed, biotinylated)
# T2 sequence: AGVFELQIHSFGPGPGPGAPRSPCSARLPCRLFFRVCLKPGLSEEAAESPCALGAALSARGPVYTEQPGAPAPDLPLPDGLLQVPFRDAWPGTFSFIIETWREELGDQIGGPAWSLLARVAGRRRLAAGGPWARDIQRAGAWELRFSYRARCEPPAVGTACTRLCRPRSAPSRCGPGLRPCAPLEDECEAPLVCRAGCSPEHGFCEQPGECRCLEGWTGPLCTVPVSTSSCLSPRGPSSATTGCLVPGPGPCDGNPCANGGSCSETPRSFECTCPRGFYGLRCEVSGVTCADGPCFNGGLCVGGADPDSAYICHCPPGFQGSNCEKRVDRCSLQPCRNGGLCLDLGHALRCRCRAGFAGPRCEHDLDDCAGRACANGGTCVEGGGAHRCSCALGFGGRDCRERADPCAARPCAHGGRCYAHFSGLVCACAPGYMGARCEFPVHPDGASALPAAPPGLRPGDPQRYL
# Test: Octet BLI, single 50 nM
# Method in brief: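 First, biotinylated DLL3-Fc fusion is loaded onto the tips. Next, conditioned medium carrying trispecific protein at known concentration is applied as analyte. Affinity is then derived from the recorded binding.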
row,Binder,Kd
1,B2,4.1 nM
2,B3,8.1 nM
3,B4,6.8 nM
4,B5,3.9 nM
5,B6,16 nM
6,B7,4.3 nM
7,B8,16 nM
8,B1,4.5 nM
9,B9,4.7 nM
10,B10,5.9 nM
11,B11,6.1 nM
12,B12,8.9 nM
13,B13,8 nM
14,B14,2.7 nM
15,B15,4.5 nM
16,B16,18 nM
17,B17,3.8 nM
18,B18,5.8 nM
19,B19,6.8 nM
20,B20,3.7 nM
21,B21,4 nM
22,B22,2.4 nM
23,B23,4.4 nM
24,B24,3.9 nM
25,B25,5.6 nM
26,B26,6.8 nM
27,B27,6 nM
28,B28,6.1 nM

# Target: T3, cynomolgus DLL3 (cynomolgus, UniProt A0A2K5WSR1 27-490)
# T3 construct: also called cyDLL3
# T3 sequence: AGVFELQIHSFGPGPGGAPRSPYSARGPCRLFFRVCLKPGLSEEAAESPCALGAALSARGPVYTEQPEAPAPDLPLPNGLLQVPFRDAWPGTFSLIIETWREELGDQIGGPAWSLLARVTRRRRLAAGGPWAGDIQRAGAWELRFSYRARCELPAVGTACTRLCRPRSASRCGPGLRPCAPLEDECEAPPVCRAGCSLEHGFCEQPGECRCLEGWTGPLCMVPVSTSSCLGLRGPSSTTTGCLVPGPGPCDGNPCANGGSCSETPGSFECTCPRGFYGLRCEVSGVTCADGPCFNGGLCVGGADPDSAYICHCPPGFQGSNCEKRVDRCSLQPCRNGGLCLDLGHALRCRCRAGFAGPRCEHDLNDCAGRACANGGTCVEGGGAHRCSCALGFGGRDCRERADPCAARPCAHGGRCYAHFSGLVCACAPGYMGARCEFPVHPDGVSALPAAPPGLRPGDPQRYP
# Test: Octet BLI, single 60 nM
row,Binder,Kd
1,B3,9.5 nM
2,B4,8.8 nM
3,B1,5.7 nM
4,B9,8.2 nM
5,B15,5.7 nM
6,B20,3.6 nM
7,B23,5.2 nM
8,B24,4.8 nM
9,B27,3.4 nM

# Target: T1, human DLL3 on DLL3-expressing tumor …
# Test: cell-based or functional assay
# Remark: another data set of the same source
row,Binder,DMS-153 TDCC EC50
1,B2,33 pM
2,B5,48 pM
3,B7,67 pM
4,B1,36 pM
5,B9,52 pM
6,B10,61 pM
7,B11,51 pM
8,B13,120 pM
9,B14,120 pM
10,B15,52 pM
11,B17,41 pM
12,B19,68 pM
13,B20,51 pM
14,B21,31 pM
15,B22,190 pM
16,B23,31 pM
17,B24,33 pM
18,B25,81 pM
19,B27,59 pM
20,B28,96 pM

# Target: T1, human DLL3 on DLL3-expressing tumor …
# Test: cell-based or functional assay
# Remark: another data set of the same source
row,Binder,DMS-153 TDCC EC50
1,B9,60 pM
2,B18,98 pM
3,B20,170 pM
4,B23,96 pM
5,B24,72 pM
6,B26,43 pM
7,B27,120 pM

# Target: T2, biotinylated human DLL3 protein …
# Test: Octet BLI, 60/20/6.67/2.22 nM
# Protocol: Using the conditioned medium with known concentrations of the anti-DLL3 trispecific proteins, the binding affinities of the anti-DLL3 trispecific proteins toward human DLL3 protein were measured using a method where biotinylated version of human DLL3 protein were expressed as a human IgG1 fusion protein, and the binding affinity measurement was carried out in an Octet instrument with streptavidin tips.
row,Binder,Kd
1,B3,7.8 nM
2,B4,7.3 nM
3,B1,3.9 nM
4,B9,8.1 nM
5,B15,4 nM
6,B20,3.5 nM
7,B23,4.4 nM
8,B24,3.5 nM
9,B27,4.4 nM
